Assays:
[1] = Fluorescence adsorption study (intrinsic tryptophan fluorescence) of binding to cuvette walls; assay type: physicochemical; conditions: solution of TGF-β (1 μg/ml) in water, 25° C.
Source text: We have also developed an analytical method suitable for determining suitable concentrations of TGF-β, especially TGF-β3. When adsorption of a fluorescent molecule (protein) occurs to the cuvette walls the concentration of the molecule in the solution decreases. This change in concentration is monitored by changes (reduction) in the fluorescence intensity. With optimized slits in the excitation and emission monochromators the excitation beam is focused in a small region in the middle of the cuvette and the emission is collected also preferentially from the same region. […] In these conditions the fluorescence intensity is proportional to the concentration of the molecules in the aqueous solution (monitored in the middle of the cuvette). If binding occurs a decrease in the fluorescence intensity is observed. For TGF-β the intrinsic tryptophan fluorescence is used in the adsorption studies. To characterize an adsorption process the percentage from the total TGF-β in the cuvette which bound to the walls in a given time interval, e.g. 25 minutes, is measured. Fluorescence measurements are performed with a Spex Fluorolog® or a Spex Fluoromax® spectrophotometers with a stirred attachment in the cell holder at 25° C. Tryptophan fluorescence is excited at 280 nm and emission monitored at 340 nm. […]

vascularization = assay: Mouse subcutaneous model (induction of angiogenesis); assay type: in vivo
Source text: (§1) The in vivo performance of the pharmaceutical compositions of the present invention may be tested on horses (wound healing), pigs (oral mucositis inhibition), rabbits e.g. with the rabbit cranial defect model (induction of repairing of bone defects), and femal mice (induction of angiogenesis).

[2] = Chemical stability of lyophilized formulation, by-products by capillary zone electrophoresis; assay type: physicochemical; conditions: in the absence of CaCl2
Procedure: The chemical stability of lyophilized formulation in vials containing TGF-β3, 5.881 mg of CaCl2 and 25 mg of mannitol have been tested. The vials are solubilized to obtain TGF-β3 solutions of 0.1 mg/ml and 0.25 mg/ml. TGF-β3 by-products (related substances) are determined by capillary zone electrophoresis. […] There is no increase in the TGF-β3 by-products after 6 month incubation at 40° C. In comparison, in the absence of CaCl2 the chemical degradation is substantial.

cranial bone defect = assay: Rabbit cranial defect model, bony filling by quantitative radiography; assay type: in vivo
Procedure: as §1
Bone disks removed for creation of the defect served as controls for the extent of bone regeneration. After an eight week healing period the bony filling of the defects was determined by quantitative radiography. The total defect area corresponded to 113320.2 pixels and was taken as 100% for further calculations. Accordingly, complete regeneration corresponded to a value of 11.3×10^4 pixels.

[3] = Aggregation by 90°-light scattering; assay type: physicochemical; conditions: 10 mM calcium chloride or 10 mM calcium phosphate, and 20% isopropanol or ethanol; increasing TGF-β3 concentration up to 60 μg/ml
Procedure: Aggregation of TGF-β3 in different aqueous conditions is studied using 90°-lightscattering. Using the same wavelength for excitation and emission, e.g. excitation and emission wavelength is 560 nm, a Spectrofluorimeter is used to detect aggregation events by measuring the 90°-light scatter. In this method a small aliquot of TGF-β3 stock solution is added in the fluorescence cuvette. If aggregation takes place an increase in the 90°-light scatter intensity is observed.
A composition comprising 10 mM calcium chloride or 10 mM calcium phosphate, and 20% isopropanol or ethanol is prepared.

Row | Substance | binding to plastic, quartz and siliconised quartz cuvettes [1] | vascularization (in words) (vascularization) | chemical degradation [2] | bone formation (in words) (cranial bone defect) | aggregation (90°-light scatter intensity) [3]
1 | TGF-β | bind strongly | – | – | – | –
2 | TGF-β3: 25 kD homodimeric, disulfide-linked protein composed of two 112 amino acid polypeptides | – | strong vascularization | substantial | strong bone formation | No aggregation

Reference: patent US6649168B2, “Pharmaceutical compositions comprising TGF-beta” (Novartis AG, priority 1999, dated 2003)
